Source: the DeepSol protein solubility set

Experiment: soluble on expression in E. coli; label from the status in PepcDB or PDB records

Row | Sequence | soluble on expression in E. coli
1 | MLPDSSVRLNKYISESGICSRREADRYIEQGNVFLNGKRATIGDQVKPGDVVKVNGQLIEPREAEDLVLIALNKPVGIVSTTEDGERDNIVDFVNHSKRVFPIGRLDKDSQGLIFLTNHGDLVNKILRAGNDHEKEYLVTVDKPITEEFIRGMSAGVPILGTVTKKCKVKKEAPFVFRITLVQGLNRQIRRMCEHFGYEVKKLERTRIMNVSLSGIPLGEWRDLTDDELIDLFKLIENSSSEVKPKAKAKPKTAGIKRPVVKMEKTAEKGGRPASNGKRFTSPGRKKKGRLEHHHHHH | soluble
2 | MGSDKIHHHHHHMSASIPETMKAVVIENGKAVVKQDIPIPELEEGFVLIKTVAVAGNPTDWKHIDFKIGPQGALLGCDAAGQIVKLGPNVDAARFAIGDYIYGVIHGASVRFPSNGAFAEYSAISSETAYKPAREFRLCGKDKLPEGPVKSLEGAVSLPVSLTTAGMILTHSFGLDMTWKPSKAQRDQPILFWGGATAVGQMLIQLAKKLNGFSKIIVVASRKHEKLLKEYGADELFDYHDADVIEQIKKKYNNIPYLVDCVSNTETIQQVYKCAADDLDATVVQLTVLTEKDIKEEDRRQNVSIEGTLLYLIGGNDVPFGTFTLPADPEYKEAAIKFIKFINPKINDGEIHHIPVKVYKNGLDDIPQL | not soluble
3 | MEGQQVILHLPLSQKGPFWTWEPSAPRTLLQVLQDPALKDLVLTCPTLPWHSLILRPQYEIQAIMHMRRTIVKIPSTLEVDVEDVTASSRHVHFIKPLLLSEVLAWEGPFPLSMEILEVPEGRPIFLSPWVGSLQKGQRLCVYGLASPPWRVLASSKGRKVPRHFLVSGGYQGKLRRRPREFPTAYDLLGAFQPGRPLRVVATKDCEGEREENPEFTSLAVGDRLEVLGPGQAHGAQGSDVDVLVCQRLSDQAGEDEEEECKEEAETQSGSCCPSTSLAVSWRRLEHHHHHH | not soluble
4 | MGSDKIHHHHHHMSDLSQRIAELSPEKLKLLVQRLNNKQGEILLRSPIVPQSRELNSFPLSSAQQRLWFIDQLQPGNSAYNISVPMRLGGWLNVAALEQSFKEVVKRHEVLRTTFTVVDGQPLQVIASSLSFTLPVVDLQKLPQNQREAEVLRLASEEAQQPFDLAQGPLLRATLLQLAAAEYALLLTMHHIIADGWAIGVLIREIADLYKAFSVGKPSPLSELSIQYVDFAVWQQQWLQGQLETQLAYWQQQLGSIPVVELPSDFPRSTTQTFSGAREALVLPKTLCDRLKTLNQRQGITLFMVLLAAFGALLNWYTDREDIVVGTDIANRNQAETKALIGFFANQLVLRTNLSKNPTFLELLERVREMTLEAYAHQDLPFDKLVDALNPKRELNRTPLFQVKLVLENTQTPSLELPGLTISSLKIENKTVQFDLLLELNETEQGLFGIWEYSTDLFERDSIVRLSKNFATLLAEVATHPEAKLSELKAVLNQVDKQQHLAKEQVYQNTIQQKLMNVKRRANSRQSTSGNTNHDKN | not soluble
5 | ETVIMKYLLPTAAAGLLLLAAQPAMAQVKLQQSGAELVRSGTSVKLSCTASGFNIKDSYMHWLRQGPEQGLEWIGWIDPENGDTEYAPKFQGKATFTTDTSSNTAYLQLSSLTSEDTAVYYCNEGTPTGPYYFDYWGQGTTVTVSSGGGGSGGGGSGGGGSENVLTQSPAIMSASPGEKVTITCSASSSVSYMHWFQQKPGTSPKLWIYSTSNLASGVPARFSGSGSGTSYSLTISRMEAEDAATYYCQQRSSYPLTFGAGTKLELKRAAAEQKLISEEDLN | soluble
6 | MLCVRRRCISAPMTDTTILPRPEVSGDFLVAALYHFARLPRFESLREQLFELCQKNGVKGTLLLAAEGINGTIAGPDAGVQAVLSFLRAQPEFAALEHKESRASHMPFVRLKVKLKKEIVTMGVPDIDPNRIVGTYVDPRDWNALISDPDTIVIDTRNDYETAIGVFKGAVDPQTKTFREFPDWVKNNPGLHNKPKIAMYCTGGIRCEKATAFMKEQGFDEVYHLKGGILKYLEEVPEEESLWEGACFVFDERVSVVHGLAEGDHQLCHACRNPITPDVRLSPKFEEGVSCPSCYDERSEDDRQRFRDRQQQIELAKTRGERHLGRLEHHHHHH | soluble
7 | GMMNTPESRLVAAGLELPEVAAALGNYEPYSIVGSQLMTSGQFPYLQGKLLYQGQLGADYTVSEGYAACRLATLNAIAQLKQACGELSRIKQIYRLEGVLNVHQSCIEHPKALDGASDLLLEIFGEAGRHSRMIWTNPVMPLNSLCLVYLFAEL | soluble
8 | MASYTSEQAEALLKLQFDKYAKFIDDEVWAEVEGYYHPSGVLVHKGKEAVYGNKDKSTYIAKFAEGTGKSVGTTTNAKYEGSGDYLIITADFSSETEKAGTVKGRFVQI | not soluble
9 | MIVREGSAEILVPEVYHGPGKRGTGFYNADQKINRDITIEFIKKMGIRNVLDGFGGTGIRGIRISKETDSAVTISEVSPDSYRLIRDNVERNGSQASVINDSFECVLQHGAYEYVDVDPYGSPVPYLDAALMGVKRNGFLGVTATDQSALTGSVPHKTRIRYDALIKNDTFRHEMGIRLLIGYMAKRAASLGRFIDPLISIWHGHYYRVFVRVRKGFEGAGRMMQNLGYVNKHNLLSGIYQDMDEGPVWKGNLQDNAVAEAVLASAGHKAFNPEENRLLFCDLTDIARARHTSLPDIESVIDALSSSGHAASRTMFSPTGIKTDASCDLVESLMMDTLHRRSPA | not soluble
10 | MGHHHHHHAIAENLYFQSKLVEKTTTTEQDNGEDFCRTIIEVSEVNRNVFQAPGGEADPFRVVSGEELHLIPPLNFSMVDNGIFRSGFPDSANFSFLQTLGLRSIIYLCPEPYPESNLQFLKSNGIRLFQFGIEGNKEPFVNIPDHKIRMALKVLLDEKNHPVLIHCKRGKHRTGCLVGCLRKLQKWCLTSIFDEYQRFAAAKARVSDQRFMEIFDVSSFSHIPMSFSCSIR | soluble
11 | MGSDKIHHHHHHMKTTALRLYGKRDLRLETFDLPEMQEDEILATVVTDSLCLSSWKEANLGENHKKVPDDVTTNPIIIGHEFCGDILAVGKKWQHKFQPGQRYVIQANLQLPDRPDCPGYSFPWVDGEATHVVIPNEVMEQYCLLAYDGETYFEGSLVEPLSCVIGAFNANYHLQEGSYNHTMGIRPQGHTLILGGTGPMGLLAIDYALHGPVNPSLLVITDTDNDKLSYARKHYPSEPQTLIHYLNATDAAFDTLMALSGGHGFDDIFVFVPNEGLVTLASSLLATDGCLNFFAGPQDKHFSAPINFYDVHYAFTHYVGTSGGNTDDMRAAVKLIEEKKVQAAKVVTHILGLNAAGETTLELPAVGGGKKLVYTGKYLPLTSLTQIQDQALAAILARHQGIWSGEVEQYLLAHAEAISHD | not soluble
12 | MAFERQGKIEKKISYSLFLNGPNVHFGSILFGAVDKSKYAEELCTHPMRQAYNTLDSNSRIIITVQSVAILDGKLVW | not soluble
13 | MIDAVATDSSSTPSNEKPRRARRTRMTGAERRQQLLEIGRTLFAAKGFEGTSVEEIAAKAGVSKPVVYEHFGGKEGLYAVVVDREMRRLLDMVTGSLTAGHPRELCEQAAFALLDYIEEYTDGFRILVRDSPIPQSTGTFASLISDIATQVEDILGREFKNRGFDAKLAPLYAQALVGMVALTGQWWLDVRRPKKAEVAAHLVNLAWHGLDGLEPKPRLIGHRKS | not soluble
14 | MSSIASNTFTKTVESVPVDIKYDSDKYFISGYSYDAEVYLTATTQLALTTETTSDTRHFKLVADLSNFGPGTSHVPIQVKNLPDGMSAQVSPSTLTATIGKKASKTFDVVANITPDKLANGYEVKKVSLDETKVEVTSSEDIINQIDHVQAVLEGDDNLSDDYDGNLVLQAVSSNGTILASSISPAKVHAKISLRKLSKSVPVKLELTGDKASNVSSISYSFDRGHVTIVGSQEAMDKIDSITVPVDISQVTEDTSKTLELKAEGVTVQPSTVKVNLKVTQKLEHHHHHH | soluble
15 | GPGSMLRGTRLMLMMQLHSLPTPNPSCYTFHIPSSTYDNFIPDGQTCDVAHMGLAWVHPLSQGIFEQYPQEVASVFIAPRHTSITVHPHVDWNKLEWSISSFIGHYLVFTNACFPAAAEYALLEDDLVIHEDDSEVLQCIKELVREQVRPMVQRDGGDVKLLNFNEKTGVVSLAMLGACRTCPSSQNTLKDGVERLLKHFLPEVKEVVEAKGHAFYEEYGLLFDSEKALREEAARVDAVRRRKISIYTTAPLMPFEALNEPDGDE | not soluble
16 | MNALPPARRLRVASIGGGFSGAALAWHLARAHRPERLSISVIEPRLALGGGLAYSSEEPSHRVNVPAVRMSMAPDDPQHFVRWLAGSGELERDADAIWKNGDAYPRRRVFGRYVAEHLAPYLASGAVRHVGGPATGVTREANGAGWTVQTSAGPVIADIVVLAATHPAPAIPAALASLAEASGFVADPYAASALAGIGLDASVLIVGSGLTSADMVTELDRRGHRGRVLALSRRGLRSRGHPDVRGEPFGDFASAPATSALGLLKSIRATLAAAREANVNWQSVFDQLRLQGPVLWAALAPSERARLVRQLRVFWDVHRFRIAPQIASVLDRRQTAGTFDTIAARLVASNDEGENLAVSFQRRGQTRIETARFDAVINTTGPAHGQALQLNPALRSLAEAGLIRSDAYGLGIETSLDSRAIGWDGEAVAGLFVAGPLARGTFGELMGLPEVARHAQMVAAEIARLVDRFPSAEAVGANAGDVATARLEHHHHHH | not soluble
17 | MNIENPAPILDQDPYVQAYPETRAFWEAAAQGRFVLPRCRDCGQSHWYPRGLCPLCGSTALEWQDAAGTGTLYSYSVMRAAPQPYAIAYVQLAEGPLVLTNIVDSDLERLRIGQPVRVAFQRTQEGRSAPVFVALAD | not soluble
18 | ATGAAAAAATCAATCCTCAAATCTGTGTTAGCGTCTTCTATTACGCTTTCTATCACGCTAAGCAGCACTGCTTTCGCCTCTCCTATCGTGACACCAGACGCACCACAAATTGCCGCTAAAGGCTATGTACTGATGGATTACCATTCAGGAAAAGTGTTGGCTGAAAAAGAGATGGATACCAAACTCTCTCCTGCCAGCCTAACCAAGATGATGACCAGTTACGTGATCGGTCAAGAAGTAAAGCGTGGCAACATCTCGCTAAATGACGATGTCGTGATCAGCAAAAATGCTTGGGCGAAAAACTTCCCTGATTCTTCGAAAATGTTCGTTGAAGTCGGTACCACGGTTAAGGTCAGCGATCTCAACCGCGGCATCATCATCCAATCGGGTAATGATGCGTGTGTAGCGATGGCAGAGCACGTCGCAGGGACGGAAGATGCGTTTGTTGACCTGATGAACGCTTGGGCAAGCTCACTTGGGATGAAGAATTCGCACTTCACTAACTCTCACGGTTTGGACGATCCTAATCTTTACTCTACGCCATACGATCTGGCTCTACTTGGCCAAGCTCTGATCCGTGAWGTGCCTGAAGAGTACGCGATCTACTCCGAGCAAAAATTCACCTACAACGGCATCACTCAATACAACCGTAACGGTTTGCTTTGGGATAAAAGCATGAATGTGGACGGCATTAAAACCGGACATACGAGTGGTGCTGGCTATAACCTCGTGAGCTCTGCTACAGAAGGCAACATGCGCTTGGTTGCGGTGGTGATGGGTACTGACAACGAAAACGCGCGTAAAGCGGAAAGTAAGAAGCTACTGAGCTACGGTTTCCGCTTCTTTGAAACCGTGGCACCACACAAAGCGGGTGAAACTTTCGTGAATGAAACCATCTGGATGGGCGATAAAGACACGATTGCACTCGGTGTTGATAAAGATACTTACGTAACTTTGCCACGCGGACAGGCCAAAGATCTCACCGCCAGCTTTGTACTTGAAAAACAATTGAAAGCACCGCTGAAGAAAGGCGATATCGTCGGCACACTTTACTATCAATTAGCTGGTAACGATATTGCTCAATACCCATTGCTCGCACTGGAAGATGTGCAAGAAGGCAGCCTATTTAGCCGCCTATGGGATTACTTGGTTCTGCTGTTCAAAAGCTGGTTTTAA | not soluble
